Data as given in IntAct's records for PubMed 20974926.

B1: Eukaryotic peptide chain release factor GTP-binding subunit (Schizosaccharomyces pombe (strain ATCC 38366 / 972)), O74718 (parent)
chain: MASNQPNNGEQDEQLAKQTSKLSMSAKAPTFTPKAAPFIPSFQRPGFVPVNNIAGGYPYAQYTGQGQNSNSPHPTKSYQQYYQKPTGNTVDEDKSRVPDFSKKKSFVPPKPAIPKGKVLSLGGNTSAPKSTKPISISLGGTKAPTTTKPAAPAAQSKTETPAPKVTSESTKKETAAPPPQETPTKSADAELAKTPSAPAAALKKAAEAAEPATVTEDATDLQNEVDQELLKDMYGKEHVNIVFIGHVDAGKSTLGGNILFLTGMVDKRTMEKIEREAKEAGKESWYLSWALDSTSEEREKGKTVEVGRAYFETEHRRFSLLDAPGHKGYVTNMINGASQADIGVLVISARRGEFEAGFERGGQTREHAVLARTQGINHLVVVINKMDEPSVQWSEERYKECVDKLSMFLRRVAGYNSKTDVKYMPVSAYTGQNVKDRVDSSVCPWYQGPSLLEYLDSMTHLERKVNAPFIMPIASKYKDLGTILEGKIEAGSIKKNSNVLVMPINQTLEVTAIYDEADEEISSSICGDQVRLRVRGDDSDVQTGYVLTSTKNPVHATTRFIAQIAILELPSILTTGYSCVMHIHTAVEEVSFAKLLHKLDKTNRKSKKPPMFATKGMKIIAELETQTPVCMERFEDYQYMGRFTLRDQGTTVAVGKVVKILD
partner: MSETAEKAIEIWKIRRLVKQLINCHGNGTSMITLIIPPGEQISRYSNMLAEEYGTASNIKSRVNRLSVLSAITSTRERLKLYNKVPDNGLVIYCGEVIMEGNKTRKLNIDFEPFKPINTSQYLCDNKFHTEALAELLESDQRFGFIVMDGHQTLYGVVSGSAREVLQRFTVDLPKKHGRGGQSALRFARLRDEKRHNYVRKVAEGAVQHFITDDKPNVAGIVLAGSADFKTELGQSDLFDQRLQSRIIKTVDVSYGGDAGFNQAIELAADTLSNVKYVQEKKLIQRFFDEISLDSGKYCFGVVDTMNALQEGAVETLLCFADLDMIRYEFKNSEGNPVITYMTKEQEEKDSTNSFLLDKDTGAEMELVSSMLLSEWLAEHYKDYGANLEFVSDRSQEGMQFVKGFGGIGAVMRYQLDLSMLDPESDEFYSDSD
B2: Peptide chain release factor subunit 1 (Aeropyrum pernix (strain ATCC 700893 / DSM 11879 / JCM 9820 / NBRC 100138 / K1)), Q9YAF1 (parent)
chain: MSQGRLEERLTISKRELARLLKELKKWSAPATVLLSLYIPPGRPLSDVMTLLRQEYSITDNIKLKRTRQAVKRALSAAMDRLQMLTSTPPNGLVLFCGEDMSTGKFECFMFSPPEPIRVFYYRTDKRFITDFLEDMVEDNNAIGIIIVERDQATIGLLKGARLEVLKELEGFVPGKHKMGGQSQRRYERIIEQMVDEFFKKVGEEASNLLVPLAEKGVLKGVIVAGPGLAKQEFVEGNYLDYRLKKILAPELVDVAYQGLQGLKEAVMKAEKVVEAQMYRDAVNAMEEFKLHLAKGTGMIVYGEKDVEAALEMGAVKTLLIHESREDLEEWVEKAKSSGAQVIVVPESLAEAEWFLKTFGGLAGILRFRISTV
partner: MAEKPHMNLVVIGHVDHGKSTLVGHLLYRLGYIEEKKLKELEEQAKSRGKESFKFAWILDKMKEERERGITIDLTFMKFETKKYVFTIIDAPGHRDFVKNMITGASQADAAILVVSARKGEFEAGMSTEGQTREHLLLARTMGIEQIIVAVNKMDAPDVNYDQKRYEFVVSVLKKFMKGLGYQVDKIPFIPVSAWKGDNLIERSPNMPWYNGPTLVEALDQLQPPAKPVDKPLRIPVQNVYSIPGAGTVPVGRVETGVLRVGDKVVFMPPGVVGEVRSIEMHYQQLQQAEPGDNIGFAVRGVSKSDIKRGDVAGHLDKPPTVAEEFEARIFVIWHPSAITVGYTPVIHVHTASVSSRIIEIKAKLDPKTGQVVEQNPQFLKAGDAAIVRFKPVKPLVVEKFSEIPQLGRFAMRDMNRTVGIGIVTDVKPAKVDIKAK
B3: Eukaryotic peptide chain release factor subunit 1 (Schizosaccharomyces pombe (strain ATCC 38366 / 972)), P79063 (parent)
chain: B1 partner
partner: B1 chain
B4: Elongation factor 1-alpha (Aeropyrum pernix (strain ATCC 700893 / DSM 11879 / JCM 9820 / NBRC 100138 / K1)), Q9YAV0 (parent)
chain: B2 partner
partner: B2 chain

Variants of: B1
Conditions: with erf1_schpo sup45, P79063

effect of a mutation on the interaction	Variant
decreasing interaction	T294A
decreasing interaction	E305A
disrupting interaction	Y329A
disrupting interaction	Y477A
decreasing interaction	E297A

Variants of: B2
Conditions: with ef1a_aerpe tuf

effect of a mutation on the interaction	Variant
disrupting interaction	K290A
disrupting interaction	G228A
decreasing interaction	E168A
disrupting interaction	F359A
disrupting interaction	W354A
disrupting interaction	L293A

Variants of: B3
Conditions: with erf3_schpo sup35, O74718

effect of a mutation on the interaction	Variant
decreasing interaction	L173A
decreasing interaction	K176A

Variants of: B4
Conditions: with rf1_aerpe prf1, Q9YAF1

effect of a mutation on the interaction	Variant
disrupting interaction	F379A
disrupting interaction	E64A
disrupting interaction	S337A
disrupting interaction	A338S
decreasing interaction	D73A
decreasing interaction	E65A
